Source: US20060166284A1 (Bayer, published 2006)
“And” between values parts separate entries of the source, which are not always exact repeats. Identical values can stand only once.

B1: recombinant human soluble tissue factor (receptor, UniProt P13726 33-251, looked up)
chain: SGTTNTVAAYNLTWKSTNFKTILEWEPKPVNQVYTVQISTKSGDWKSKCFYTTDTECDLTDEIVKDVKQTYLARVFSYPAGNVESTGSAGEPLYENSPEFTPYLETNLGQPTIQSFEQVGTKVNVTVEDERTLVRRNNTFLSLRDVFGKDLIYTLYYWKSSSSGKKTAKTNTNEFLIDVDKGENYCFSVQAVIPSRTVNRKSTDSPVECMGQEKGEFRE
notes: extracellular domain; also called sTF; soluble TF
B2: single chain anti-TF antibody scFv(TF)3e10 (scFv)
scFv: EMAQVNLRESGGTLVQPGGSLRLSCAASGFSFTDAWMSWVRQAPGKELEWVSSISGSGGSTYYAGSVKGRFTISRDNSKNTLYLQMNSLRAEDTAVYYCARVLSLTDYYWYGMDVWGQGTLVTVSAGGGGSGAPNFMLTQPHSVSASPGKTVTISCTRSSGSVASYYVQWYQQRPGSSPTTVIYEDNHRPSGVPDRFSGSIDTSSNSASLTISGLKTEDEADYYCQSYDSNNLVVFGGGTKLTVLGAAAGAPVPYPDPLEPRAA
notes: Monomer and dimer forms were separated by gel filtration

Key:
[1] = target: FVIIa/TF complex on a phospholipid surface (recombinant human TF vesicles with human FVIIa) (UniProt P13726)
human factor VIIa [2] = target: T1, human factor VIIa (human, UniProt P08709 61-466); test: sTF/FVIIa peptide hydrolysis assay (S2266), 2 nM FVIIa, sTF titrated, apparent KD from a 4-parameter fit; no antibody
T1 construct: mature; also called FVIIa
T1 sequence (looked up): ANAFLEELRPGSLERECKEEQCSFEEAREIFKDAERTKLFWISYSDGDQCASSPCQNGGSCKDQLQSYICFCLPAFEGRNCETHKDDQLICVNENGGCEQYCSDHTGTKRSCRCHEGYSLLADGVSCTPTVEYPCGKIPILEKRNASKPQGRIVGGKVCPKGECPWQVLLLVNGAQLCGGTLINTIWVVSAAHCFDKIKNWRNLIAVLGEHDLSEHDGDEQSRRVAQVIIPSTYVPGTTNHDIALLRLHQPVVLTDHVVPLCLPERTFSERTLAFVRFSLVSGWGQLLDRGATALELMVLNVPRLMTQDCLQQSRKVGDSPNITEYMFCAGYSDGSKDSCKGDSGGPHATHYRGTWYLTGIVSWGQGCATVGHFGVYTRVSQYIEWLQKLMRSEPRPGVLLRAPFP

[3] = target: FVIIa/TF complex on a phospholipid surface (recombinant human TF vesicles with human FVIIa) (human, UniProt P13726 33-295; P08709 61-466); test: cell-based or functional assay
[4] = target: B1; test: BIAcore; BIAcore; free sTF, no FVIIa
[5] = target: T2, FVIIa/TF complex preformed from sTF and FVIIai (human, UniProt P13726 33-251; P08709 61-466, limits assumed, active site inactivated by a chloromethylketone peptide, PPACK (FVIIai)); test: microcalorimetry (ITC); scFv expressed in mammalian (CHO) cells
T2 construct: extracellular domain;mature; Complex used in the microcalorimetry assay; It was made with a 2.3 fold molar excess of FVIIai over sTF; also called TF/FVIIa complex; sTF/FVIIa complex
Description: (§1) This assay is performed using a MicroCal VP-ITC instrument. […] Data analysis is performed using MicroCal Origin software. The data is fit to a single binding site.

human factor VIIa [6] = target: T1, human factor VIIa; test: sTF/FVIIa peptide hydrolysis assay (S2266), 2 nM FVIIa, no sTF
[7] = target: B1; test: microcalorimetry (ITC); scFv expressed in mammalian (CHO) cells; free sTF; microcalorimetry; free sTF; mammalian cell expressed scFv
Description: as §1

[8] = target: T2, FVIIa/TF complex preformed from sTF and …; test: microcalorimetry (isothermal titration calorimetry), model OneSites, CHO-expressed scFv(TF)3e10 titrated into the preformed sTF/FVIIai complex
Description: as §1

[9] = target: T2, FVIIa/TF complex preformed from sTF and …; test: microcalorimetry (ITC); scFv expressed in mammalian (CHO) cells; complex of sTF with FVIIai; microcalorimetry; TF/FVIIa complex; mammalian cell expressed scFv
Description: as §1

[10] = target: B1; test: microcalorimetry (isothermal titration calorimetry), model OneSites, CHO-expressed scFv(TF)3e10 titrated into sTF; no unit printed in the fit box
Description: as §1

[11] = target: T2, FVIIa/TF complex preformed from sTF and …; test: microcalorimetry (isothermal titration calorimetry), model OneSites, CHO-expressed scFv(TF)3e10 titrated into the preformed sTF/FVIIai complex; no unit printed in the fit box
Description: as §1

[12] = target: T3, sTF/FVIIa complex (soluble tissue factor with active human FVIIa) (human, UniProt P13726 33-251; P08709 61-466); test: sTF/FVIIa peptide hydrolysis assay (3 nM sTF, 2 nM FVIIa); scFv titrated, 4-parameter fit of the rise in rate; bacterially expressed scFv; peptide hydrolysis assay with 3 nM sTF and 2 nM FVIIa present
T3 construct: extracellular domain;mature; The complex forms in the sTF/FVIIa peptide hydrolysis assay (3 nM sTF, 2 nM FVIIa); also called FVIIa/TF complex; VIIa/TF complex

How did the “Km of FX for the VIIa/TF complex (FX activation assay)” value [1] turn out when human factor X was run?
The value was “between 0.061 and 0.099 µM”.

With B1 as the molecule, how does the Kd (human factor VIIa [2]) read?
Its Kd is 13 nM.

For B2, which “IC50 for inhibition in the FX activation assay” value [3] is on record?
The value was 0.44 nM.

What about the Kd [4] of the same molecule?
The Kd was 470 nM.

And the “fold higher affinity for the TF/FVIIa complex as compared to free sTF” value [5]?
Its value is about 20 fold.

Does B2 bind (human factor VIIa [6])?
Result: no binding (tested: 800 nM)

And the Kd [7]?
The Kd was 600 nM.

What about the N [8] of the same molecule?
Its N is 1.14.

And the Kd [9]?
Its Kd is 33 nM.

What about the ΔH [10] of the same molecule?
The ΔH was -21800.

What about the ΔH [11] of the same molecule?
The ΔH was -28600.

And the ΔS [11]?
The ΔS was -60.

What about the Kd [12] of the same molecule?
The Kd was 65 nM.
